Data: patent publication US20260266848A1, “COMPOSITIONS AND METHODS FOR DIAGNOSING AND TREATING DYSTONIA” (Duke University, priority 2023, published 2026)

B1: ACAA1 (protein, UniProt P09110 27-424, looked up)
3-ketoacyl-CoA thiolase, …: LSGAPQASAADVVVVHGRRTAICRAGRGGFKDTTPDELLSAVMTAVLKDVNLRPEQLGDICVGNVLQPGAGAIMARIAQFLSDIPETVPLSTVNRQCSSGLQAVASIAGGIRNGSYDIGMACGVESMSLADRGNPGNITSRLMEKEKARDCLIPMGITSENVAERFGISREKQDTFALASQQKAARAQSKGCFQAEIVPVTTTVHDDKGTKRSITVTQDEGIRPSTTMEGLAKLKPAFKKDGSTTAGNSSQVSDGAAAILLARRSKAEELGLPILGVLRSYAVVGVPPDIMGIGPAYAIPVALQKAGLTVSDVDIFEINEAFASQAAYCVEKLRLPPEKVNPLGGAVALGHPLGCTGARQVITLLNELKRRGKRAYGVVSMCIGTGMGAAAVFEYPGN
B2: TUBB1 (protein, UniProt Q9H4B7 1-451, looked up)
Tubulin beta-1 chain: MREIVHIQIGQCGNQIGAKFWEMIGEEHGIDLAGSDRGASALQLERISVYYNEAYGRKYVPRAVLVDLEPGTMDSIRSSKLGALFQPDSFVHGNSGAGNNWAKGHYTEGAELIENVLEVVRHESESCDCLQGFQIVHSLGGGTGSGMGTLLMNKIREEYPDRIMNSFSVMPSPKVSDTVVEPYNAVLSIHQLIENADACFCIDNEALYDICFRTLKLTTPTYGDLNHLVSLTMSGITTSLRFPGQLNADLRKLAVNMVPFPRLHFFMPGFAPLTAQGSQQYRALSVAELTQQMFDARNTMAACDLRRGRYLTVACIFRGKMSTKEVDQQLLSVQTRNSSCFVEWIPNNVKVAVCDIPPRGLSMAATFIGNNTAIQEIFNRVSEHFSAMFKRKAFVHWYTSEGMDINEFGEAENNIHDLVSEYQQFQDAKAVLEEDEEVTEEAEMEPEDKGH
B3: LRRC59 (protein, UniProt Q96AG4 1-307, looked up)
Leucine-rich …: MTKAGSKGGNLRDKLDGNELDLSLSDLNEVPVKELAALPKATILDLSCNKLTTLPSDFCGLTHLVKLDLSKNKLQQLPADFGRLVNLQHLDLLNNKLVTLPVSFAQLKNLKWLDLKDNPLDPVLAKVAGDCLDEKQCKQCANKVLQHMKAVQADQERERQRRLEVEREAEKKREAKQRAKEAQERELRKREKAEEKERRRKEYDALKAAKREQEKKPKKEANQAPKSKSGSRPRKPPPRKHTRSWAVLKLLLLLLLFGVAGGLVACRVTELQQQPLCTSVNTIYDNAVQGLRRHEILQWVLQTDSQQ
B4: RBM3 (protein, UniProt P98179 1-157, looked up)
RNA-binding protein 3: MSSEEGKLFVGGLNFNTDEQALEDHFSSFGPISEVVVVKDRETQRSRGFGFITFTNPEHASVAMRAMNGESLDGRQIRVDHAGKSARGTRGGGFGAHGRGRSYSRGGGDQGYGSGRYYDSRPGGYGYGYGRSRDYNGRNQGGYDRYSGGNYRDNYDN
B5: SLC2A1 (protein, UniProt P11166 1-492, looked up)
Solute carrier family 2, …: MEPSSKKLTGRLMLAVGGAVLGSLQFGYNTGVINAPQKVIEEFYNQTWVHRYGESILPTTLTTLWSLSVAIFSVGGMIGSFSVGLFVNRFGRRNSMLMMNLLAFVSAVLMGFSKLGKSFEMLILGRFIIGVYCGLTTGFVPMYVGEVSPTALRGALGTLHQLGIVVGILIAQVFGLDSIMGNKDLWPLLLSIIFIPALLQCIVLPFCPESPRFLLINRNEENRAKSVLKKLRGTADVTHDLQEMKEESRQMMREKKVTILELFRSPAYRQPILIAVVLQLSQQLSGINAVFYYSTSIFEKAGVQQPVYATIGSGIVNTAFTVVSLFVVERAGRRTLHLIGLAGMAGCAILMTIALALLEQLPWMSYLSIVAIFGFVAFFEVGPGPIPWFIVAELFSQGPRPAAIAVAGFSNWTSNFIVGMCFQYVEQLCGPYVFIIFTVLLVLFFIFTYFKVPETKGRTFDEIASGFRQGGASQSDKTPEELFHPLGADSQV
B6: BZW2 (protein, UniProt Q9Y6E2 1-419, looked up)
eIF5-mimic protein 1: MNKHQKPVLTGQRFKTRKRDEKEKFEPTVFRDTLVQGLNEAGDDLEAVAKFLDSTGSRLDYRRYADTLFDILVAGSMLAPGGTRIDDGDKTKMTNHCVFSANEDHETIRNYAQVFNKLIRRYKYLEKAFEDEMKKLLLFLKAFSETEQTKLAMLSGILLGNGTLPATILTSLFTDSLVKEGIAASFAVKLFKAWMAEKDANSVTSSLRKANLDKRLLELFPVNRQSVDHFAKYFTDAGLKELSDFLRVQQSLGTRKELQKELQERLSQECPIKEVVLYVKEEMKRNDLPETAVIGLLWTCIMNAVEWNKKEELVAEQALKHLKQYAPLLAVFSSQGQSELILLQKVQEYCYDNIHFMKAFQKIVVLFYKADVLSEEAILKWYKEAHVAKGKSVFLDQMKKFVEWLQNAEEESESEGEEN
B7: MARS1 (protein, UniProt P56192 1-900, looked up)
Methionine--tRNA ligase, …: MRLFVSDGVPGCLPVLAAAGRARGRAEVLISTVGPEDCVVPFLTRPKVPVLQLDSGNYLFSTSAICRYFFLLSGWEQDDLTNQWLEWEATELQPALSAALYYLVVQGKKGEDVLGSVRRALTHIDHSLSRQNCPFLAGETESLADIVLWGALYPLLQDPAYLPEELSALHSWFQTLSTQEPCQRAAETVLKQQGVLALRPYLQKQPQPSPAEGRAVTNEPEEEELATLSEEEIAMAVTAWEKGLESLPPLRPQQNPVLPVAGERNVLITSALPYVNNVPHLGNIIGCVLSADVFARYSRLRQWNTLYLCGTDEYGTATETKALEEGLTPQEICDKYHIIHADIYRWFNISFDIFGRTTTPQQTKITQDIFQQLLKRGFVLQDTVEQLRCEHCARFLADRFVEGVCPFCGYEEARGDQCDKCGKLINAVELKKPQCKVCRSCPVVQSSQHLFLDLPKLEKRLEEWLGRTLPGSDWTPNAQFITRSWLRDGLKPRCITRDLKWGTPVPLEGFEDKVFYVWFDATIGYLSITANYTDQWERWWKNPEQVDLYQFMAKDNVPFHSLVFPCSALGAEDNYTLVSHLIATEYLNYEDGKFSKSRGVGVFGDMAQDTGIPADIWRFYLLYIRPEGQDSAFSWTDLLLKNNSELLNNLGNFINRAGMFVSKFFGGYVPEMVLTPDDQRLLAHVTLELQHYHQLLEKVRIRDALRSILTISRHGNQYIQVNEPWKRIKGSEADRQRAGTVTGLAVNIAALLSVMLQPYMPTVSATIQAQLQLPPPACSILLTNFLCTLPAGHQIGTVSPLFQKLENDQIESLRQRFGGGQAKTSPKPAVVETVTTAKPQQIQALMDEVTKQGNIVRELKAQKADKNEVAAEVAKLLDLKKQLAVAEGKPPEAPKGKKKK
B8: EHD4 (protein, UniProt Q9H223 1-541, looked up)
EH domain-containing protein 4: MFSWMGRQAGGRERAGGADAVQTVTGGLRSLYLRKVLPLEEAYRFHEFHSPALEDADFENKPMILLVGQYSTGKTTFIRYLLEQDFPGMRIGPEPTTDSFIAVMYGETEGSTPGNALVVDPKKPFRKLSRFGNAFLNRFMCSQLPNQVLKSISVIDSPGILSGEKQRISRGYDFCQVLQWFAERVDRIILLFDAHKLDISDEFSEAIKAFRGQDDKIRVVLNKADQVDTQQLMRVYGALMWSLGKVINTPEVLRVYIGSFWAQPLQNTDNRRLFEAEAQDLFRDIQSLPQKAAVRKLNDLIKRARLAKVHAYIISYLKKEMPSVFGKENKKRELISRLPEIYIQLQREYQISAGDFPEVKAMQEQLENYDFTKFHSLKPKLIEAVDNMLSNKISPLMNLISQEETSTPTQLVQGGAFDGTTEGPFNQGYGEGAKEGADEEEWVVAKDKPVYDELFYTLSPINGKISGVNAKKEMVTSKLPNSVLGKIWKLADCDCDGMLDEEEFALAKHLIKIKLDGYELPSSLPPHLVPPSHRKSLPKAD
B9: PSMD12 (protein, UniProt O00232 2-456, looked up)
26S proteasome non-ATPase …: ADGGSERADGRIVKMEVDYSATVDQRLPECAKLAKEGRLQEVIETLLSLEKQTRTASDMVSTSRILVAVVKMCYEAKEWDLLNENIMLLSKRRSQLKQAVAKMVQQCCTYVEEITDLPIKLRLIDTLRMVTEGKIYVEIERARLTKTLATIKEQNGDVKEAASILQELQVETYGSMEKKERVEFILEQMRLCLAVKDYIRTQIISKKINTKFFQEENTEKLKLKYYNLMIQLDQHEGSYLSICKHYRAIYDTPCIQAESEKWQQALKSVVLYVILAPFDNEQSDLVHRISGDKKLEEIPKYKDLLKLFTTMELMRWSTLVEDYGMELRKGSLESPATDVFGSTEEGEKRWKDLKNRVVEHNIRIMAKYYTRITMKRMAQLLDLSVDESEAFLSNLVVNKTIFAKVDRLAGIINFQRPKDPNNLLNDWSQKLNSLMSLVNKTTHLIAKEEMIHNLQ
B10: PITPNB (protein, UniProt P48739 1-271, looked up)
Phosphatidylinositol transfer …: MVLIKEFRVVLPCSVQEYQVGQLYSVAEASKNETGGGEGIEVLKNEPYEKDGEKGQYTHKIYHLKSKVPAFVRMIAPEGSLVFHEKAWNAYPYCRTIVTNEYMKDDFFIKIETWHKPDLGTLENVHGLDPNTWKTVEIVHIDIADRSQVEPADYKADEDPALFQSVKTKRGPLGPNWKKELANSPDCPQMCAYKLVTIKFKWWGLQSKVENFIQKQEKRIFTNFHRQLFCWIDKWIDLTMEDIRRMEDETQKELETMRKRGSVRGTSAADV

test system: DYT1 patient plasma derived EVs; experiment: Plasma-derived EV proteomics (ExoQuick ULTRA, DIA LC/MS/MS), DYT1 vs Healthy Controls; parameters: species or system human; settings: Hs. Plasma EVs (DYT1/WT); significance of genotype difference
Protocol: Data was obtained for extracellular vesicles using previously acquired samples. The ExoQuick® ULTRA EV Isolation System was used to fractionate and enrich EVs from plasma. Isolated plasma EV samples were then submitted to proteomic analysis by the Duke Proteomics and Metabolomics Core Facility (DPMCF). At the DPMCF, quantitative (LC/MS/MS) was performed on 500 ng of each sample, using an EvoSep One UPLC system coupled to a Thermo Orbitrap Astral high-resolution accurate mass tandem mass spectrometer (Thermo). Briefly, the sample was eluted directly from an Evotip which was subjected to a low organic wash and then subjected to an analytical separation using a 1.7 μm EvoSep 150 um ID×15 cm endurance (EveoSep) column running an SPD30 gradient from approximately 5 to 30% acetonitrile with 0.1% formic acid with a column temperature of 50 C. Data collection on the Orbitrap Astral mass spectrometer was performed in a data-independent acquisition (DIA) mode of acquisition with a r=240,000 (@m/z 200) full MS scan from m/z 380-980 with a target AGC value of 4e5 ions. Fixed DIA, windows of 4 m/z from m/z 380 to 980 DIA MS/MS scans were acquired in the Astral with a target AGC value of 5e4 and a max fill time of 6 ms. HCD collision energy setting of 27% was used for all MS2 scans.

Compared with B1, B2 is higher in “-LogP” value: 1.434 for the first, 2.267 for the second.

Compared with B3, B4 is higher in “-LogP” value: 1.584 for the first, 2.179 for the second.

Compared with B5, B6 is lower in “-LogP” value: 1.635 for the first, 1.385 for the second.

Compared with B7, B8 is higher in “-LogP” value: 1.714 for the first, 3.322 for the second.

B9 and B10 are within 0.2 log units of each other in “-LogP” value: 1.461 for the first, 1.575 for the second.
